For assay [1], the target named is KSHV gH (V5 epitope-tagged)/gL complex (Kaposi's sarcoma-associated herpesvirus (KSHV, HHV-8)) (UniProt F5HAK9).
In assay [2] the target is RRV 26-95 gH (V5 epitope-tagged)/gL complex (rhesus monkey rhadinovirus (RRV) strain 26-95).

The record followed here is article PMC3656109.

UniProt F5HAK9, sequence (F5HAK9 whole entry, looked up, one chain of several): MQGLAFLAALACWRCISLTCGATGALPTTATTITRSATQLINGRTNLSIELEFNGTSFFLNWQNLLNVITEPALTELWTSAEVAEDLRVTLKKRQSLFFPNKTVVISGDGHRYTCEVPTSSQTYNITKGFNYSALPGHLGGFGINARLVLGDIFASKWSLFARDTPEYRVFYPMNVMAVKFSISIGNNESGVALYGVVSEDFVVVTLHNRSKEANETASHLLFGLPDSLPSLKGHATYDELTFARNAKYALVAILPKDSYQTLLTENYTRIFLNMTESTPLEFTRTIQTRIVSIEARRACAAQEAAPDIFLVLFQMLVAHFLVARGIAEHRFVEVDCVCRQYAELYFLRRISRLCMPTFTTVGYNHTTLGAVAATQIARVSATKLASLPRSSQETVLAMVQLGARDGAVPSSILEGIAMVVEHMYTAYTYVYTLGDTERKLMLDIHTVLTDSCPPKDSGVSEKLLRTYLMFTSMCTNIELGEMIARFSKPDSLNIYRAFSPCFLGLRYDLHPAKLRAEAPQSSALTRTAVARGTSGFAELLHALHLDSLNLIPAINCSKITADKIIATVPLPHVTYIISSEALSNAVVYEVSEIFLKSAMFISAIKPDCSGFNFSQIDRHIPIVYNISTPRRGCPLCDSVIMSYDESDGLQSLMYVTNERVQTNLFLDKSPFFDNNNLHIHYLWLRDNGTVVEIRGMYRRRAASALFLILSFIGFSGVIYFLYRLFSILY

As to “EphA7-Fc (from UniProt Q15375 28-555) (Fc fusion)”, the entry of KSHV into rhesus fibroblasts after pre-incubation of the virus with EphA7-Fc (1 to 20 µg/ml; no block at 1 µg/ml, value at 20 µg/ml) in assay [1] is -35%.

B1: EphB3-Fc (Fc fusion)
chain: GCRALEETLMDTKWVTSELAWTSHPESGWEEVSGYDEAMNPIRTYQVCNVRESSQNNWLRTGFIWRRDVQRVYVELKFTVRDCNSIPNIPGSCKETFNLFYYEADSDVASASSPFWMENPYVKVDTIAPDESFSRLDAGRVNTKVRSFGPLSKAGFYLAFQDQGACMSLISVRAFYKKCASTTAGFALFPETLTGAEPTSLVIAPGTCIPNAVEVSVPLKLYCNGDGEWMVPVGACTCATGHEPAAKESQCRPCPPGSYKAKQGEGPCLPCPPNSRTTSPAASICTCHNNFYRADSDSADSACTTVPSPPRGVISNVNETSLILEWSEPRDLGGRDDLLYNVICKKCHGAGGASACSRCDDNVEFVPRQLGLTERRVHISHLLAHTRYTFEVQAVNGVSGKSPLPPRYAAVNITTNQAAPSEVPTLRLHSSSGSSLTLSWAPPERPNGVILDYEMKYFEKSEGIASTVTSQMNSVQLDGLRPDARYVVQVRARTVAGYGQYSRPAEFETTSERGSGAQQLQEQLPL
As for B1, the decrease in nuclear accumulation of the RRV genome in HUVEC four hours post infection (real-time PCR) in the presence of 5 µg/ml EphB3-Fc in assay [2] was 74%.

B2: EphA1-Fc (Fc fusion)
chain: KEVTLMDTSKAQGELGWLLDPPKDGWSEQQQILNGTPLYMYQDCPMQGRRDTDHWLRSNWIYRGEEASRVHVELQFTVRDCKSFPGGAGPLGCKETFNLLYMESDQDVGIQLRRPLFQKVTTVAADQSFTIRDLVSGSVKLNVERCSLGRLTRRGLYLAFHNPGACVALVSVRVFYQRCPETLNGLAQFPDTLPGPAGLVEVAGTCLPHARASPRPSGAPRMHCSPDGEWLVPVGRCHCEPGYEEGGSGEACVACPSGSYRMDMDTPHCLTCPQQSTAESEGATICTCESGHYRAPGEGPQVACTGPPSAPRNLSFSASGTQLSLRWEPPADTGGRQDVRYSVRCSQCQGTAQDGGPCQPCGVGVHFSPGARGLTTPAVHVNGLEPYANYTFNVEAQNGVSGLGSSGHASTSVSISMGHAESLSGLSLRLVKKEPRQLELTWAGSRPRSPGANLTYELHVLNQDEERYQMVLEPRVLLTELQPDTTYIVRVRMLTPLGPGPFSPDHEFRTSPPVSRGLTGGE
Regarding B2, in assay [1], the entry of KSHV into rhesus fibroblasts after pre-incubation of the virus with EphA1-Fc (1 to 20 µg/ml; no block at 1 µg/ml, value at 20 µg/ml) is -22%.
